Article PMC10945505 (2024)

How the values were obtained:
Assay in all cases: BLI
[1] = target: FZD7 CRD (Homo sapiens)
[2] = target: Human βKlotho (human, UniProt Q86Z14 1-996)
[3] = target: L-39F7
[4] = target: L-αGFP

Row | Kd [1] [nM] | Kd [2] [nM] | Kd [3] [nM] | Kd [4] [nM] | Binder
1 | 92.3 | 10.1 |  |  | F-FGF21FL (other) HPIPDSSPLLQFGGQVRQRYLYTDDAQQTEAHLEIREDGTVGGAADQSPESLLQLKALKPGVIQILGVKTSRFLCQRPDGALYGSLHFDPEACSFRERLLEDGYNVYQSEAHGLPLHLPGNKSPHRDPAPRGPARFLPLPGLPPALPEPPGILAPQPPDVGSSDPLSMVGGSQGRSPSYES
2 | 82.5 | 11.8 |  |  | F-FGF21ΔN (other) QRYLYTDDAQQTEAHLEIREDGTVGGAADQSPESLLQLKALKPGVIQILGVKTSRFLCQRPDGALYGSLHFDPEACSFRERLLEDGYNVYQSEAHGLPLHLPGNKSPHRDPAPRGPARFLPLPGLPPALPEPPGILAPQPPDVGSSDPLSMVGGSQGRSPSYES
3 |  |  | 6.4 | 9.7 | LRP6E3E4 (protein) EAFLLFSRRADIRRISLETNNNNVAIPLTGVKEASALDFDVTDNRIYWTDISLKTISRAFMNGSALEHVVEFGLDYPEGMAVDWLGKNLYWADTGTNRIEVSKLDGQHRQVLVWKDLDSPRALALDPAEGFMYWTEWGGKPKIDRAAMDGSERTTLVPNVGRANGLTIDYAKRRLYWTDLDTNLIESSNMLGLNREVIADDLPHPFGLTQYQDYIYWTDWSRRSIERANKTSGQNRTIIQGHLDYVMDILVFHSSRQSGWNECASSNGHCSHLCLAVPVGGFVCGCPAHYSLNADNRTCSAPTTFLLFSQKSAINRMVIDEQQSPDIILPIHSLRNVRAIDYDPLDKQLYWIDSRQNMIRKAQEDGSQGFTVVVSSVPSQNLEIQPYDLSIDIYSRYIYWTCEATNVINVTRLDGRSVGVVLKGEQDRPRAVVVNPEKGYMYFTNLQERSPKIERAALDGTEREVLFFSGLSKPIALALDSRLGKLFWADSDLRRIESSDLSGANRIVLEDSNILQPVGLTVFENWLYWIDKQQQMIEKIDMTGREGRTKVQARIAQLSDIHAVKELNLQEYRQHPCAQDNGGCSHICLVKGDGTTRCSCPMHLVLLQDELSCGEP
